Reference: publication PMC11598873, “Neutralizing VHH Antibodies Targeting the Spike Protein of PEDV” (Veterinary Sciences, 2024)

B1: VHH1–89 (recombinant, pcDNA3.1-VHH, 6 × His) (VHH)
VHH: QVQLQESGGGLVQAGGSLRLSCAASGYISDAYYMGWYRQAPGKEREFVATITHGTNTYYADSVKGRFTISRDNAKNTVYLQMNSLKPEDTAVYYCAVFLARIASFLPILLISLRYWGQGTQVTVSS
B2: VHH2–18 (recombinant, pcDNA3.1-VHH, 6 × His) (VHH)
VHH: QVQLQESGGGLVQAGGSLRLSCAASGYISDAYYMGWYRQAPGKEREFVATITHGTNTYYADSVKGRFTISRDNAKNTVYLQMNSLKPEDTAVYYCAASSLRKVLMTQLPTRLYYYWGQGTQVTVSS
B3: VHH1–15 (recombinant, pcDNA3.1-VHH, 6 × His) (VHH)
VHH: QVQLQESGGGLVQAGGSLRLSCAASGYISDAYYMGWYRQAPGKEREFVATITHGTNTYYADSVKGRFTISRDNAKNTVYLQMNSLKPEDTAVYYCAVLETRSYSFRYWGQGTQVTVSS
notes: same VHH as m2; also called PEDV S-VHH; not shown: His6, C-terminal, kept
B4: VHH1–15 (pGADT7-VHH library clone) (VHH)
VHH: B3 VHH
notes: clone from a synthetic nanobody yeast library; also called PEDV S-VHH; source: yeast two-hybrid fusion (AH109)
B5: VHH1–41 (recombinant, pcDNA3.1-VHH, 6 × His) (VHH)
VHH: QVQLQESGGGLVQAGGSLRLSCAASGSIFTFVRMGWYRQAPGKERELVAGIAIGSITYYADSVKGRFTISRDNAKNTVYLQMNSLKPEDTAVYYCAAQSVQKAETTSPFAYWGQGTQVTVSS
B6: VHH2–50 (recombinant, pcDNA3.1-VHH, 6 × His) (VHH)
VHH: QVQLQESGGGLVQAGGSLRLSCAASGYISDAYYMGWYRQAPGKEREFVATITHGTNTYYADSVKGRFTISRDNAKNTVYLQMNSLKPEDTAVYYCAALFSIIVYYFSNSNLVFNYWGQGTQVTVSS
B7: VHH1–4 (recombinant, pcDNA3.1-VHH, 6 × His) (VHH)
VHH: QVQLQESGGGLVQAGGSLRLSCAASGTIFCYGGMGWYRQAPGKERELVAGITMGTSTNYADSVKGRFTISRDNAKNTVYLQMNSLKPEDTAVYYCAAAVMVAGPYQSWHGYWGQGTQVTVSS
B8: VHH2–77 (recombinant, pcDNA3.1-VHH, 6 × His) (VHH)
VHH: QVQLQESGGGLVQAGGSLRLSCAASGYISDAYYMGWYRQAPGKEREFVATITHGTNTYYADSVKGRFTISRDNAKNTVYLQMNSLKPEDTAVYYCAVFSTISVNIYTFLYVIFFYWGQGTQVTVSS
B9: VHH2–28 (recombinant, pcDNA3.1-VHH, 6 × His) (VHH)
VHH: QVQLQESGGGLVQAGGSLRLSCAASGSISLHPQMGWYRQAPGKERELVAGIATGGNTNYADSVKGRFTISRDNAKNTVYLQMNSLKPEDTAVYYCAVNEYHPRAMYALYIYWGQGTQVTVSS

Legend:
[1] = target: T1, PEDV S protein of strain PEDV-JSXH-2021 in infected Vero E6 cells (Porcine epidemic diarrhea virus, …, UniProt Q91AV1, strain); test: cell-based or functional assay
[2] = target: T2, Recombinant PEDV S protein, strain PEDV-JSXH-2021, 3 × FLAG (pFastBac1-PEDV-S, rBV-PEDV-S) (Porcine epidemic diarrhea virus, …, UniProt Q91AV1, strain); test: immunostaining of cells or tissue; IFA on Sf9 cells infected with rBV-PEDV-S (MOI 0.1, 48 h), fixed with 4% paraformaldehyde; diluted refolded VHH as primary antibody, mouse anti-His tag, then Alexa Fluor 488 goat anti-mouse IgG; uninfected Sf9 cells as mock; details: one partner purified
T2 construct: Spike (S) protein of porcine epidemic diarrhea virus strain PEDV-JSXH-2021; band of approximately 180 kDa on the blot; the plasmid was synthesised; also called PEDV S protein expressed in Sf9 cells; source: Sf9 cells infected with recombinant baculovirus rBV-PEDV-S; in fixed cells and in supernatant of sonicated cells; not shown: 3xFLAG, C-terminal, kept

[3] = target: T1, PEDV S protein of strain PEDV-JSXH-2021 …; test: immunostaining of cells or tissue; IFA on Vero E6 cells infected with PEDV-JSXH-2021 (MOI 0.01, 48 h), fixed with 4% paraformaldehyde; purified VHH as primary antibody overnight at 4 °C, mouse anti-His tag, then Alexa Fluor 555 goat anti-mouse IgG; uninfected cells as mock; details: one partner purified
[4] = target: T3, PEDV spike (S) protein, strain PEDV-JSXH-2021, bait pGBKT7-PEDV-S (Porcine epidemic diarrhea virus, …, UniProt Q91AV1, strain); test: two-hybrid; yeast AH109; bait in pGBKT7, prey in pGADT7; growth on SD-TL, SD-TLH, SD-TLHA and blue colour on SD-TLHA + X-α-gal, 30 °C, 3–4 days; positive clones verified again after the library screen; details: partners not purified
T3 construct: Spike (S) protein of porcine epidemic diarrhea virus strain PEDV-JSXH-2021 (G1b type); source: yeast two-hybrid fusion (AH109)

Row | Binder | concentration of VHH that completely neutralises infection of Vero E6 cells by PEDV-JSXH-2021 (serial dilutions from 200 ng/µL, read by IFA after 5 to 7 days) [1] [ng/µL] | further results
1 | B1 | 12.5 | –
2 | B2 | 50 | –
3 | B3 | – | binding result [2]: binds; binding result [3]: binds
4 | B4 | – | binding result [4]: binds
5 | B5 | 25 | –
6 | B6 | 25 | –
7 | B7 | 100 | –
8 | B8 | 12.5 | –
9 | B9 | 50 | –
